Laboratory results taken from paper PMC9679424, “The CARD8 T60 variant associates with NLRP1 and negatively regulates its activation” (Frontiers in Immunology, 2022).

Target: T1, NLRP1-FLAG (human, UniProt Q9C000-1 1-1473)
T1 construct: NLRP1, human, UniProt Q9C000-1, full length; The host of the purified protein is told only as a mammalian expression system; also called full-length NLRP1; Flag-tagged NLRP1; source: HEK 293T, transiently transfected, in lysate; also purified using mammalian protein expression system
T1 sequence (looked up): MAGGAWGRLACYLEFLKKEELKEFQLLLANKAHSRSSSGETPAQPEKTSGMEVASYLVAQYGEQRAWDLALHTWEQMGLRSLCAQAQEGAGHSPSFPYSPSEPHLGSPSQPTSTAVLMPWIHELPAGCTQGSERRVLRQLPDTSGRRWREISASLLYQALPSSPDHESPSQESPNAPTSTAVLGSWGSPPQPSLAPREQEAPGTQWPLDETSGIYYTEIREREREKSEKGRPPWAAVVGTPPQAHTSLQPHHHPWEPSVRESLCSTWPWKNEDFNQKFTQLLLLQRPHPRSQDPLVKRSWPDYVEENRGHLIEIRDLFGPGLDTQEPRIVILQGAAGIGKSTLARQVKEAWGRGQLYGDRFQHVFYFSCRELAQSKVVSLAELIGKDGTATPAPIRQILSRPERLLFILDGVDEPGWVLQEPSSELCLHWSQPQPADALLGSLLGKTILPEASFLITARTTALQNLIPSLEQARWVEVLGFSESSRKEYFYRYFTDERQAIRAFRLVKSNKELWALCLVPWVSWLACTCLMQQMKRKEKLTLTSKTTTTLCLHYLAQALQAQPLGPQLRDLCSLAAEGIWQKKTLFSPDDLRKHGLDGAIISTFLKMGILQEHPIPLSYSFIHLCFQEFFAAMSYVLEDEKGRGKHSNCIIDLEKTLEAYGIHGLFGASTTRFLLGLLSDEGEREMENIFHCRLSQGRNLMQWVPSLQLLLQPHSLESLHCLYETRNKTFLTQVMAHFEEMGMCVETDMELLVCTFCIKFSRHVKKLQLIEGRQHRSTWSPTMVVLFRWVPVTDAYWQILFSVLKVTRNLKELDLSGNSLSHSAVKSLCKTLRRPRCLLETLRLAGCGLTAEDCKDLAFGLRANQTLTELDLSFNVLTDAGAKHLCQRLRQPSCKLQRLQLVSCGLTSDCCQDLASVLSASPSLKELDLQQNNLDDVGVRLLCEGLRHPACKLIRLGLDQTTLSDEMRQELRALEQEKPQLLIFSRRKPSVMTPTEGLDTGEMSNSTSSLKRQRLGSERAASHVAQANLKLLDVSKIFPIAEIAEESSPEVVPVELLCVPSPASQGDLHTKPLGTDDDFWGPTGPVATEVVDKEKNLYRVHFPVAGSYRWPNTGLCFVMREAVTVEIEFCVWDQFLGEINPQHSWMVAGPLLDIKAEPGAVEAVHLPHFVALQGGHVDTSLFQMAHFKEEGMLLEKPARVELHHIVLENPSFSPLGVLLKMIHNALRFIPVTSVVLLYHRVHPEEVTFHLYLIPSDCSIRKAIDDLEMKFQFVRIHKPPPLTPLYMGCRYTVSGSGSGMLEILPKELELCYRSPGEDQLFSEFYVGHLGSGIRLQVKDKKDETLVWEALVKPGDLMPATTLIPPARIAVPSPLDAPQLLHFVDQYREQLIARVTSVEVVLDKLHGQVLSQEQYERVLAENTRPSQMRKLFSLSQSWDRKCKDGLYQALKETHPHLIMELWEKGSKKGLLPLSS
Test: co-IP; HEK 293T cells transiently co-transfected, 28 hours; lysate (20 mM Tris-HCl pH 7.5, 100 mM KCl, 5 mM MgCl2, 0.3% NP-40); precipitation by the Strep tag of CARD8-T60-Strep (anti-Strep; Strep-Tactin gel) overnight at 4 °C; immunoblotting
Details: partners not purified

binding result: binds
B1: CARD8-T60-Strep (natural protein, human, UniProt Q9Y2G2-5 1-537, looked up)
chain: MEKKECPEKSSSSEEELPRRDSGSSRNIDASKLIRLQGSRKLLVDNSIRELQYTKTGIFFQAEACVTNDTVYRELPCVSETLCDISHFFQEDDETEAEPLLFRAVPECQLSGGDIPSVSEEQESSEGQDSGDICSEENQIVSSYASKVCFEIEEDYKNRQFLGPEGNVDVELIDKSTNRYSVWFPTAGWYLWSATGLGFLVRDEVTVTIAFGSWSQHLALDLQHHEQWLVGGPLFDVTAEPEEAVAEIHLPHFISLQAGEVDVSWFLVAHFKNEGMVLEHPARVEPFYAVLESPSFSLMGILLRIASGTRLSIPITSNTLIYYHPHPEDIKFHLYLVPSDALLTKAIDDEEDRFHGVRLQTSPPMEPLNFGSSYIVSNSANLKVMPKELKLSYRSPGEIQHFSKFYAGQMKEPIQLEITEKRHGTLVWDTEVKPVDLQLVAASAPPPFSGAAFVKENHRQLQARMGDLKGVLDDLQDNEVLTENEKELVEQEKTRQSKNEALLSMVEKKGDLALDVLFRSISERDPYLVSYLRQQNL
notes: CARD8, T60 isoform, human, UniProt Q9Y2G2-5, full length; The host of the purified protein is told only as a mammalian expression system; also called CARD8-Strep; T60 isoform of CARD8; source: HEK 293T, transiently transfected, in lysate; also purified using mammalian protein expression system
